# B1: human Factor I (protein)
# chain: KVTYTSQEDLVEKKCLAKKYTHLSCDKVFCQPWQRCIEGTCVCKLPYQCPKNGTAVCATNRRSFPTYCQQKSLECLHPGTKFLNNGTCTAEGKFSVSLKHGNTDSEGIVEVKLVDQDKTMFICKSSWSMREANVACLDLGFQQGADTQRRFKLSDLSINSTECLHVHCRGLETSLAECTFTKRRTMGYQDFADVVCYTQKADSPMDDFFQCVNGKYISQMKACDGINDCGDQSDELCCKACQGKGFHCKSGVCIPSQYQCNGEVDCITGEDEVGCAGFASVTQEETEILTADMDAERRRIKSLLPKLSCGVKNRMHIRRKRIVGGKRAQLGDLPWQVAIKDASGITCGGIYIGGCWILTAAHCLRASKTHRYQIWTTVVDWIHPDLKRIVIEYVDRIIFHENYNAGTYQNDIALIEMKKDGNKKDCELPRSIPACVPWSPYLFQPNDTCIVSGWGREKDNERVFSLQWGEVKLISNCSKFYGNRFYEKEMECAGTYDGSIDACKGDSGGPLVCMDANNVTYVWGVVSWGENCGKPEFPGVYTKVANYFDWISYHVGRPFISQYNV
# B2: rat Factor I (protein)
# chain: KNTPASGQPQEDLVEQKCLLKNYTHHSCDKVFCQPWQKCIEGTCACKLPYQCPKAGTPVCATNGRGYPTYCHLKSFECLHPEIKFSNNGTCTAEEKFNVSLIYGSTDTEGIVQVKLVDQDEKMFICKNSWSTVEANVACFDLGFPLGVRDIQGRFNIPVNHKINSTECLHVRCQGVETSLAECTFTKKSSKAPHGLAGVVCYTQDADFPTSQSFQCVNGKRIPQEKACDGVNDCGDQSDELCCKGCRGQAFLCKSGVCIPNQRKCNGEVDCITGEDESGCEEDKKNKIHKGLARSDQGGETEIETEETEMLTPDMDTERKRIKSLLPKLSCGVKRNTHIRRKRVVGGKPAEMGDYPWQVAIKDGDRITCGGIYIGGCWILTAAHCVRPSRYRNYQVWTSLLDWLKPNSQLAVQGVSRVVVHEKYNGATYQNDIALVEMKKHPGKKECELINSVPACVPWSPYLFQPNDRCIISGWGREKDNQKVYSLRWGEVDLIGNCSRFYPGRYYEKEMQCAGTSDGSIDACKGDSGGPLVCKDVNNVTYVWGIVSWGENCGKPEFPGVYTRVASYFDWISYYVGRPLVSQYNV
# Tests used:
# [1] = molecular target: T1, recombinant human FHp43, P08603
# T1 chain: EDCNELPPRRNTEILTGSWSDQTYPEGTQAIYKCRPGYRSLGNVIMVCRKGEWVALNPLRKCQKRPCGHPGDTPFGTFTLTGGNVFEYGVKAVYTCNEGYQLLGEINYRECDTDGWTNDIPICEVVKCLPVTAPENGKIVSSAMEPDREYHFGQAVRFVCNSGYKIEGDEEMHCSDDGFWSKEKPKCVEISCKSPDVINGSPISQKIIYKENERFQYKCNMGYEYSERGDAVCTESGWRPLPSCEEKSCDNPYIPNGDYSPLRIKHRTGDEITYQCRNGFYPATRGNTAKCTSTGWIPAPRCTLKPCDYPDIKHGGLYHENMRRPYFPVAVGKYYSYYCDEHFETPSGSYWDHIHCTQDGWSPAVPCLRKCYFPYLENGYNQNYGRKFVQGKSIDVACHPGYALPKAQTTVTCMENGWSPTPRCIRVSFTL
# [2] = molecular target: T2, truncated recombinant rat factor H protein SCR1-7
# T2 chain: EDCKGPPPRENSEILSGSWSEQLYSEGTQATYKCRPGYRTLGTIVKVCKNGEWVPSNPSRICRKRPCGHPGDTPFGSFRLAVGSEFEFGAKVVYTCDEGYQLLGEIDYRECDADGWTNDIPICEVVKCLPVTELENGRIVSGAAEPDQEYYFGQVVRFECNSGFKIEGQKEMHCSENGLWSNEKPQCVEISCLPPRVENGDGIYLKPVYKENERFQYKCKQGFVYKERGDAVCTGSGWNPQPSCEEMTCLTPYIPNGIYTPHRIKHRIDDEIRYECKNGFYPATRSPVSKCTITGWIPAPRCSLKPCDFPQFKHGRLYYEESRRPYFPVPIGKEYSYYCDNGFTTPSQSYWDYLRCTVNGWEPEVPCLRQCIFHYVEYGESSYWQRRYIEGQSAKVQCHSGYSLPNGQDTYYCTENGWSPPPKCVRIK
Protein,"cofactor activity (43 kDa a' cleavage band of the C3b alpha-chain, SDS-PAGE/autoradiography); concentration of FHp43 in the assay [1]","cofactor activity (43 kDa a' cleavage band of the C3b alpha-chain, SDS-PAGE/autoradiography); concentration of rat FHSCR1-7 in the assay [2]"
B1,exhibit cofactor activity even at low concentrations (10 mM) when incubated with C3b and factor I of the corresponding species,
B2,,exhibit cofactor activity even at low concentrations (10 mM) when incubated with C3b and factor I of the corresponding species
